Target: AV-1980R recombinant protein (3xTau2-18-MultiTEP) (human) (UniProt P10636)
Experiment: AUC; protein in 3.2 M urea

AV-1980R recombinant protein (3xTau2-18-MultiTEP) (from UniProt P10636 2-18; P10636 2-18; P10636 2-18)
stoichiometry N: 4

— article PMC9556597
